From patent US10064928B2, “Peptides and combination of peptides for use in immunotherapy against CLL and other cancers” (IMMATICS BIOTECHNOLOGIES GMBH, priority 2015, dated 2018)

Key:
CD8+ T cells = experiment: In vitro T-cell priming assay with aAPCs loaded with peptide/MHC and anti-CD28, multimer readout; assay type: cell-based, human; conditions: in vitro immunogenicity, percentage of positive wells; for Wells positive [%]: HLA-A*02 restricted peptides; for wells: healthy HLA-A*02 donors
Text: In order to obtain information regarding the immunogenicity of the TUMAPs of the present invention, the inventors performed investigations using an in vitro T-cell priming assay based on repeated stimulations of CD8+ T cells with artificial antigen presenting cells (aAPCs) loaded with peptide/MHC complexes and anti-CD28 antibody.
In order to perform in vitro stimulations by artificial antigen presenting cells loaded with peptide-MHC complex (pMHC) and anti-CD28 antibody, the inventors first isolated CD8+ T cells from fresh HLA-A*02 leukapheresis products via positive selection using CD8 microbeads (Miltenyi Biotec, Bergisch-Gladbach, Germany) of healthy donors obtained from the University clinics Mannheim, Germany, after informed consent.
PBMCs and isolated CD8+ lymphocytes were incubated in T-cell medium (TCM) until use consisting of RPMI-Glutamax (Invitrogen, Karlsruhe, Germany) supplemented with 10% heat inactivated human AB serum (PAN-Biotech, Aidenbach, Germany), 100 U/ml Penicillin/100 μg/ml Streptomycin (Cambrex, Cologne, Germany), 1 mM sodium pyruvate (CC Pro, Oberdorla, Germany), 20 μg/ml Gentamycin (Cambrex). 2.5 ng/ml IL-7 (PromoCell, Heidelberg, Germany) and 10 U/ml IL-2 (Novartis Pharma, Nürnberg, Germany) were also added to the TCM at this step.
Generation of pMHC/anti-CD28 coated beads, T-cell stimulations and readout was performed in a highly defined in vitro system using four different pMHC molecules per stimulation condition and 8 different pMHC molecules per readout condition.
The purified co-stimulatory mouse IgG2a anti human CD28 Ab 9.3 (Jung et al., 1987) was chemically biotinylated using Sulfo-N-hydroxysuccinimidobiotin as recommended by the manufacturer (Perbio, Bonn, Germany). Beads used were 5.6 μm diameter streptavidin coated polystyrene particles (Bangs Laboratories, Illinois, USA).
800.000 beads/200 μl were coated in 96-well plates in the presence of 4×12.5 ng different biotin-pMHC, washed and 600 ng biotin anti-CD28 were added subsequently in a volume of 200 μl. Stimulations were initiated in 96-well plates by co-incubating […] CD8+ T cells with 2×10^5 washed coated beads in 200 μl TCM supplemented with 5 ng/ml IL-12 (PromoCell) for 3 days at 37° C. Half of the medium was then exchanged by fresh TCM supplemented with 80 U/ml IL-2 and incubating was continued for 4 days at 37° C. This stimulation cycle was performed for a total of three times. For the pMHC multimer readout using 8 different pMHC molecules per condition, a two-dimensional combinatorial coding approach was used as previously described (Andersen et al., 2012) with minor modifications encompassing coupling to 5 different fluorochromes. Finally, multimeric analyses were performed by staining the cells with Live/dead near IR dye (Invitrogen, Karlsruhe, Germany), CD8-FITC antibody clone SK1 (BD, Heidelberg, Germany) and fluorescent pMHC multimers. For analysis, a BD LSRII SORP cytometer equipped with appropriate lasers and filters was used. Peptide specific cells were calculated as percentage of total CD8+ cells. Evaluation of multimeric analysis was done using the FlowJo software (Tree Star, Oreg., USA). In vitro priming of specific multimer+CD8+ lymphocytes was detected by comparing to negative control stimulations.

HLA-A*02:01 = HLA-A*02:01 (Homo sapiens, UniProt P04439, D140Y/D185E/D98H/E176V/E277Q/G131W/G231S/I119V/I121R/I166T/I218V/L300P/L318F/N151K/N90K/P208A/P217A/Q86G/Q94H/R138H/R169H/T345S); experiment: MHC binding assay (UV-ligand exchange, beta2m ELISA); conditions: binding of HLA-class I restricted peptides to HLA-A*02:01, β2m ELISA
Outline: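 UV-exchange pMHC monomers, 100-fold diluted → streptavidin capture 1 h 37 °C → HRP anti-β2m 2 ug/ml 1 h 37 °C → TMB, A450. Yield from HLA-A*02:01/MLA-001 monomer standard curve, 15-500 ng/ml. Only stably bound peptides keep β2m-containing complexes intact.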

Row | Peptide Exchange (MHC class I binding score, peptide exchange yield) (HLA-A*02:01) | Substance | Wells positive [%] (CD8+ T cells) | wells (CD8+ T cells)
1 | “+++” (≥50 = +++) | 114 (LIPEGPPQV; listed as Homo sapiens) [compound 114] | “+” (<20% = +) | 
2 | “+++” (≥50 = +++) | 192 (YIQEYLTLL; listed as Homo sapiens) [compound 192] | “+” (<20% = +) | 
3 |  | 521 (YLYGQTTTYL; listed as Homo sapiens) [compound 521] |  | ++ (20%-49% = ++)
4 | “+++” (≥50 = +++) | 112 (KTLDVDATYEI; listed as Homo sapiens) [compound 112] | “+” (<20% = +) | 
5 | “++++” (≥75% = ++++) | 49 (FLTDLFAQL; listed as Homo sapiens) [compound 49] | “++” (20%-49% = ++) | 
6 | “+++” (≥50 = +++) | 332 (VMIQHVENL; listed as Homo sapiens) [compound 332] | “+” (<20% = +) | 
7 | “+++” (≥50 = +++) | 86 (HLYPGAVTI; listed as Homo sapiens) [compound 86] | “+” (<20% = +) | 
8 | “++” (≥20% = ++) | 102 (IQDRAVPSL; listed as Homo sapiens) [compound 102] | “+” (<20% = +) | 
9 | “+++” (≥50 = +++) | 96 (ILIDKTSFV; listed as Homo sapiens) [compound 96] | “+” (<20% = +) | 
10 | “+++” (≥50 = +++) | 282 (LLRDGIELV; listed as Homo sapiens) [compound 282] | “++” (20%-49% = ++) | 
11 | “+++” (≥50 = +++) | 220 (ALPEILFAKV; listed as Homo sapiens) [compound 220] | “++” (20%-49% = ++) | 
12 | “+++” (≥50 = +++) | 307 (LLLTKPTEA; listed as Homo sapiens) [compound 307] | “+” (<20% = +) | 
13 | “+++” (≥50 = +++) | 240 (ILARDILEI; listed as Homo sapiens) [compound 240] | “+” (<20% = +) | 
14 | “+++” (≥50 = +++) | 81 (WLVGQEFEL; listed as Homo sapiens) [compound 81] | “+” (<20% = +) | 
15 | “+++” (≥50 = +++) | 54 (FLYPFPLALF; listed as Homo sapiens) [compound 54] | “+” (<20% = +) | 
16 | “+++” (≥50 = +++) | 1 (AIPPSFASIFL; listed as Homo sapiens) [compound 1] | “+++” (50%-69% = +++) | 
17 | “++++” (≥75% = ++++) | 200 (YMFEEVPIVI; listed as Homo sapiens) [compound 200] | “+” (<20% = +) | 
18 | “+++” (≥50 = +++) | 5 (ALIFKIASA; listed as Homo sapiens) [compound 5] | “+++” (50%-69% = +++) | 
19 |  | 427 (LLYDAVHIV; listed as Homo sapiens) [compound 427] |  | ++ (20%-49% = ++)
20 | “++++” (≥75% = ++++) | 197 (YLQEVPILTL; listed as Homo sapiens) [compound 197] | “+” (<20% = +) | 
21 | “+++” (≥50 = +++) | 26 (AVLLVLPLV; listed as Homo sapiens) [compound 26] | “+” (<20% = +) | 

Row | Peptide Exchange (MHC class I binding score, peptide exchange yield) (HLA-A*02:01) | Substance | Wells positive [%] (CD8+ T cells) | wells (CD8+ T cells)
22 | “+++” (≥50 = +++) | 17 (ALTKTNLQL; listed as Homo sapiens) [compound 17] | “+” (<20% = +) | 
23 | “+++” (≥50 = +++) | 69 (GLHQREIFL; listed as Homo sapiens) [compound 69] | “+” (<20% = +) | 
24 | “+++” (≥50 = +++) | 380 (YLDRKLLTL; listed as Homo sapiens) [compound 380] | “++++” (>=70% = ++++) | 
25 | “++++” (≥75% = ++++) | 101 (ILVVIEPLL; listed as Homo sapiens) [compound 101] | “+” (<20% = +) | 
26 | “+++” (≥50 = +++) | 2 (ALHRPDVYL; listed as Homo sapiens) [compound 2] | “+” (<20% = +) | 
27 | “++++” (≥75% = ++++) | 201 (YQLELHGIEL; listed as Homo sapiens) [compound 201] | “+” (<20% = +) | 
28 | “++++” (≥75% = ++++) | 57 (GLSEISLRL; listed as Homo sapiens) [compound 57] | “+” (<20% = +) | 
29 | “++++” (≥75% = ++++) | 154 (SLLAELHVLTV; listed as Homo sapiens) [compound 154] | “+” (<20% = +) | 
30 | “++++” (≥75% = ++++) | 323 (SLDLFNCEV; listed as Homo sapiens) [compound 323] | “+” (<20% = +) | 
31 | “++++” (≥75% = ++++) | 32 (FIDKFTPPV; listed as Homo sapiens) [compound 32] | “++++” (>=70% = ++++) | 
32 | “+++” (≥50 = +++) | 100 (ILNNEVFAI; listed as Homo sapiens) [compound 100] | “++” (20%-49% = ++) | 
33 | “+++” (≥50 = +++) | 56 (FVFEAPYTL; listed as Homo sapiens) [compound 56] | “++” (20%-49% = ++) | 
34 | “++++” (≥75% = ++++) | 329 (VLMDGSVKL; listed as Homo sapiens) [compound 329] | “+++” (50%-69% = +++) | 
35 | “++++” (≥75% = ++++) | 320 (TIAPVTVAV; listed as Homo sapiens) [compound 320] | “+” (<20% = +) | 
36 | “++++” (≥75% = ++++) | 202 (YVDDVFLRV; listed as Homo sapiens) [compound 202] | “++” (20%-49% = ++) | 
37 | “+++” (≥50 = +++) | 322 (SLASIHVPL; listed as Homo sapiens) [compound 322] | “+” (<20% = +) | 
38 | “++” (≥20% = ++) | 269 (TLTDEQFLV; listed as Homo sapiens) [compound 269] |  | 
39 | “+++” (≥50 = +++) | 264 (TILDYINVV; listed as Homo sapiens) [compound 264] |  | 
40 | “+++” (≥50 = +++) | 99 (ILIFHSVAL; listed as Homo sapiens) [compound 99] |  | 
41 | “+++” (≥50 = +++) | 183 (VLMPTVYQQGV; listed as Homo sapiens) [compound 183] |  | 
